Measurements published in patent US20040120946A1.
One block for each binder: values may come before it. Where no end group is shown, it is not given here.

Columns and labels:
[1] = target: antibody against β1-adrenoceptor in DCM patient serum A (human); experiment: batch adsorption: 50 uL adsorbent with 300 uL DCM patient serum A, 37 C, 2 h; antibody left in supernatant read by ELISA on plate-coated β1AR2nd peptide
[2] = target: antibody against β1-adrenoceptor in DCM patient serum D (human); experiment: batch adsorption with DCM patient serum D, 37 C, 2 h; antibody left in supernatant read by ELISA on plate-coated β1AR2nd peptide
[3] = target: antibody against β1-adrenoceptor in DCM patient serum B (human); experiment: batch adsorption with DCM patient serum B, 37 C, 2 h; antibody left in supernatant read by ELISA on plate-coated β1AR2nd peptide
[4] = target: antibody against M2 muscarinic receptor in DCM patient serum C (human); experiment: batch adsorption with DCM patient serum C, 37 C, 2 h; antibody left in supernatant read by ELISA on plate-coated M2R peptide

B2: peptides (SEQ ID NOS:11,12) co-immobilized on epoxy-activated Kac (Kac-SEQ ID NOS:11,12) (protein)
peptide 1: HWWRAESDEARRCYNDPKCCDFVTNRAC
peptide 2: VRTVEDGECYIQFFSNAAVTFGTAIC
modifications: cysteine pairing not given here; also: two separate peptides co-immobilized on epoxy-activated Kac
Adsorptive capacity [2]: 80%

B3: peptide (SEQ ID NO:9) immobilized on epoxy-activated Kac (Kac-SEQ ID NO:9) (peptide)
peptide: HWWRAESDEARRCYNDPKCCDFVTNRGAC
modifications: cysteine pairing not given here; also: immobilized on epoxy-activated cellulose gel Kac
Adsorptive capacity [3]: 70%

Binder: VRTVEDGECYIQFFSNAAVTFGTAIPAKK (also: immobilized on Eupergit C 250 L) [peptide (SEQ ID NO:10) immobilized on Eupergit C 250 L (Eu-SEQ ID NO:10)]
Adsorptive capacity [4]: 60%

The next lines start with the values.

Adsorptive capacity [1]: 35%
Binder: RAESDEARRCYNDPKCCDFVTNR [peptide (SEQ ID NO:4) immobilized on epoxy-activated GCL2000m (GCL2000m-SEQ ID NO:4)]

Adsorptive capacity [1]: 15%
B1: second loop of β1-adrenoceptor peptide (β1AR2nd) immobilized on CNBr-activated Sepharose 4B (Sepharose 4B-β1AR2nd) (peptide)
peptide: HWWRAESDEARRCYNDPKCCDFVTNR
modifications: cysteine pairing not given here; also: immobilized on CNBr-activated Sepharose 4B
